We go through 1 molecule from article PMC5003816.

In this experiment the target is HSP70 (mouse, endogenous), Q61696. The experiment is described as follows: UBQLN2 IP and western blot quantification (primary MEFs). The following applies: chain shown with the change; n = 3; read off a plot. For orientation: A western blot detects proteins with antibodies after separation by electrophoresis.
HSP70 (mouse, endogenous), Q61696, sequence (Q61696 whole entry): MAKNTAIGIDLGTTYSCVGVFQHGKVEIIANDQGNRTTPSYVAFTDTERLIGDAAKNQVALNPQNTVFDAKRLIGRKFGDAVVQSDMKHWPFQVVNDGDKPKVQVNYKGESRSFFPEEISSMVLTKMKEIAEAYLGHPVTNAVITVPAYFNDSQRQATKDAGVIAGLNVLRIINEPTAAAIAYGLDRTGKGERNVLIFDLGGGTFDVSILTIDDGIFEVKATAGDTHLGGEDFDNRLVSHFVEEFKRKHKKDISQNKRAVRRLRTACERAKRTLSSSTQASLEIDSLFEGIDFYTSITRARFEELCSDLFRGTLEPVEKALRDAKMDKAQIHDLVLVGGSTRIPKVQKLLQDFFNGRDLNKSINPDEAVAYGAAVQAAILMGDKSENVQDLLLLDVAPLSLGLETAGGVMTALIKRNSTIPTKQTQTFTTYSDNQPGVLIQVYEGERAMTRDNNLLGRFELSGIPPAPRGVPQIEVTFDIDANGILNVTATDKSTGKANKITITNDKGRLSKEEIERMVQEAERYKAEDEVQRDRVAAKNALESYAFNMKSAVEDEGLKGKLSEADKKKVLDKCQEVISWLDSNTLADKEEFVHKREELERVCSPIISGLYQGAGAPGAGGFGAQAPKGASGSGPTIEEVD

B1: UBQLN2 (mouse, endogenous, wild type), Q9QZM0 mP520T (protein)
chain: MAENGESSGPPRPSRGPAAAPGAASPPAEPKIIKVTVKTPKEKEEFAVPENSTVQQFKEAISKRFKSQTDQLVLIFAGKILKDQDTLMQHGIHDGLTVHLVIKSQNRPQGQATTQPSTTAGTSTTTTTTTTAAAPAATTSSAPRSSSTPTTTNSSSFGLGSLSSLSNLGLNSPNFTELQNQMQQQLLASPEMMIQIMENPFVQSMLSNPDLMRQLIMANPQMQQLIQRNPEISHLLNNPDIMRQTLEIARNPAMMQEMMRNQDLALSNLESIPGGYNALRRMYTDIQEPMLNAAQEQFGGNPFATVGSSSTSGEGTQPSRTENRDPLPNPWAPPPTTQTAATTTTTTTTSSGSGSGSSSSSTTAGNTMAAANYVASIFSTPGMQSLLQQITENPQLIQNMLSAPYMRSMMQSLSQNPDMAAQMMLSSPLFTSNPQLQEQMRPQLPNFLQQMQNPETIAAMSNPRAMQALMQIQQGLQTLATEAPGLIPSFAPGVGMGVLGTAITPVGPVTPIGPIGPIVTFTPIGPIGPIGPTGPASSPGSTGTGIPPATTVSSSAPTETISPTSESGPNQQFIQQMVQALTGGSPPQPPNPEVRFQQQLEQLNAMGFLNREANLQALIATGGDINAAIERLLGSQPS
Take B1: the ratio to parent worked out at 0.38.
